According to patent publication US20200181238A1:
Blank lines part the entries; values can stand above or below the molecule they belong to.

Legend:
[1] = target: ICAM-1 on tumor cells (HeLa, 8505C) (human) (UniProt P05362); experiment: cell-based or functional assay
[2] = target: ICAM-1 on tumor cells (HeLa, 8505C) (human) (UniProt P05362); experiment: estimated from titrated R65 antibody binding to HeLa cells
[3] = target: ICAM-1 on tumor cells (HeLa, 8505C) (human) (UniProt P05362); experiment: flow cytometry, HeLa cells, R6.5 antibody at 10 µg/ml; ICAM-1 negative 293T control reads 0%
[4] = target: ICAM-1 on tumor cells (HeLa, 8505C) (human) (UniProt P05362); experiment: flow cytometry, 8505C cells, R6.5 antibody at 10 µg/ml; ICAM-1 negative 293T control reads 0%

ICAM-1 on tumor cells (HeLa, 8505C) (human), sequence (P05362 28-532): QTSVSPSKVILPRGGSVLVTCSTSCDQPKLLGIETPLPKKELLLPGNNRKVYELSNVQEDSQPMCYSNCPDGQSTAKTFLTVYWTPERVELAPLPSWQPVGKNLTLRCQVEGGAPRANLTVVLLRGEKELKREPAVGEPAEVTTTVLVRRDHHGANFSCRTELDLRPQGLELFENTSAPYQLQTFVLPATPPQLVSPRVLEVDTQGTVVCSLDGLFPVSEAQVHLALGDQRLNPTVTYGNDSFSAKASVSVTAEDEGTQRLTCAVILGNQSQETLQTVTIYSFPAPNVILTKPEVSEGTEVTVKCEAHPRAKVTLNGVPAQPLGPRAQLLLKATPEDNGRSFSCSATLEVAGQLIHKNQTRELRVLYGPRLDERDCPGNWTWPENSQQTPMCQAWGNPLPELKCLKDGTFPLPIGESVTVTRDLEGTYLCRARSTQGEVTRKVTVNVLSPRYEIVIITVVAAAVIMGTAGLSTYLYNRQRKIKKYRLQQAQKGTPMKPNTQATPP

Molecule: R6.5-CAR (third generation anti-ICAM-1 chimeric antigen receptor on primary human T cells) (from UniProt P10747 153-220; Q07011 214-255; P20963 52-164) (scFv)
percent of 8505C cells viable after 24 hours with CAR T cells, E:T 2.5:1 (bioluminescence, normalized to non-transduced T cells) [1]: 52%
percent of HeLa cells viable after 24 hours with CAR T cells, E:T 2.5:1 (bioluminescence, normalized to non-transduced T cells) [1]: 17%

Kd [2]: 10 nM
% ICAM-1 positive cells [3]: 100%
% ICAM-1 positive cells [4]: 97%
B1: murine monoclonal anti-human ICAM-1 antibody R6.5 (antibody, from another filing, V domains shown)
VH: QVQLQQSGPELVRPGVSVKISCKGSGYTFIDYAIHWVKESHAKSLEWIGVISAYSGDTNYNQKFKGKATMTVDKSSNTAYLELARLTSEDSAIYYCARGGWLLLSFDYWGQGTTLTVSS
VL: DVVMTQSPLSLPVSLGDQASISCRSSQSLVHSNGNNYLHWYLQKSGQAPKLLIYKVSNRFSGVPDRFSGSGSGTDFTLKISRVEAEDLGVYFCSQSTHVPLTFGGGTKLEIKR
